The assay deals with native Arp2/3 complex purified from Acanthamoeba castellanii (Acanthamoeba castellanii, UniProt P53487 1-388). Briefly: pull-down.

By Kd is commonly meant the equilibrium constant for the complex coming apart.

B1: GST-NIK 340–500 (domain or fragment)
chain: SSIVNVPGESTLRRDFLRLQQENKERSEALRRQQLLQEQQLREQEEYKRQLLAERQKRIEQQKEQRRRLEEQQRREREARRQQEREQRRREQEEKRRLEELERRRKEEEERRRAEEEKRRVEREQEYIRRQLEEEQRHLEILQQQLLQEQAMLLHDHRRPH
B1 showed a Kd of approximately 213 nM.

(Values after paper PMC4298681 (The Journal of Cell Biology, 2015).)
